The labels stand for the following.
B1: Homo sapiens TRAF6 RZ3 (RING domain and first three zinc fingers, residues 50-211) (domain or fragment, UniProt Q9Y4K3 50-211, looked up)
chain: MEEIQGYDVEFDPPLESKYECPICLMALREAVQTPCGHRFCKACIIKSIRDAGHKCPVDNEILLENQLFPDNFAKREILSLMVKCPNEGCLHKMELRHLEDHQAHCEFALMDCPQCQRPFQKFHINIHILKDCPRRQVSCDNCAASMAFEDKEIHDQNCPLA
notes: TNF receptor-associated factor 6 (TRAF6), human, residues 50-211 (RING and ZF1-3), 20.0 kDa, in pET21d; also called HsRZ3; wild-type HsRZ3; source: E. coli BL21 (DE3), purified (HisTrap, size exclusion)
B2: Danio rerio TRAF6 RZ1 (RING and ZF1, residues 50-159) (domain or fragment, UniProt Q6IWL4 50-159, looked up)
chain: MPPDQQGYDVEFDPPLESKYECPICLMGLRSAVQTPCGHRFCDSCIRKSIRDTGQKCPVDNEVLLEEQLFPDNFAKREILSLTVKCSNFGCSEKMELRQLEKHLSQCRFA
notes: TRAF6, Danio rerio, residues 50-159 (RING and ZF1), 13.7 kDa, in pET24b; also called DrRZ1; source: E. coli BL21 (DE3), purified (HisTrap, size exclusion)
B3: Danio rerio TRAF6 RZ3 (residues 50-213) (domain or fragment, UniProt Q6IWL4 50-213, looked up)
chain: MPPDQQGYDVEFDPPLESKYECPICLMGLRSAVQTPCGHRFCDSCIRKSIRDTGQKCPVDNEVLLEEQLFPDNFAKREILSLTVKCSNFGCSEKMELRQLEKHLSQCRFATAPCPQCQESVPISHLDEHKSQHCLQRIMTCPDCAGSFVYAVKQNHEQFCPFAN
notes: TRAF6, Danio rerio, residues 50-213 (RING and ZF1-3), 19.7 kDa, in pET24b; also called DrRZ3; D. rerio RZ3 TRAF6; source: E. coli BL21 (DE3), purified (HisTrap, size exclusion)
B4: Ubc13 (C87K, K92T, K94Q), the E2 moiety of the Ubc13~Ub conjugate (enzyme)
chain: MAGLPRRIIKETQRLLAEPVPGIKAEPDESNARYFHVVIAGPQDSPFEGGTFKLELFLPEEYPMAAPKVRFMTKIYHPNVDKLGRIKLDILTDQWSPALQIRTVLLSIQALLSAPNPDDPLANDVAEQWKTNEAQAIETARAWTRLYAMNNI
modifications: isopeptide-linked to ubiquitin (C87K allows the stable isopeptide link)
notes: Ubc13 (also called Ube2N), E2 enzyme, with C87K, K92T and K94Q; Stands in the structures only as the Ubc13 moiety of the conjugate m4; also called Ube2N; not shown: GST, N-terminal, cleaved

For data set [1], the target named is T1, isopeptide-linked Ubc13-ubiquitin conjugate (Ubc13 C87K, K92T, K94Q linked to wild-type ubiquitin) (UniProt P61088 1-152; P0CG48 1-76, C87K | K92T | K94Q, isopeptide-linked to ubiquitin (C87K allows the stable isopeptide link) | isopeptide-linked to Ubc13).
T1 construct: Ubc13 (also called Ube2N), E2 enzyme, with C87K, K92T and K94Q; ubiquitin, wild-type, expressed untagged; Two chains joined covalently by an isopeptide bond; also called Ubc13~Ub conjugate; source: proteins from E. coli BL21 (DE3); conjugated in vitro with E1 and ATP, purified (Superdex 75); not shown: GST, N-terminal, cleaved
Put plainly: pull-down; GST-fused Uev1A on resin mixed with TRAF6, Ubc13 and Ubc13~Ub conjugates; PBS, 0.2% TWEEN 20, 1 mM DTT, 4 °C, 1 h; Coomassie-stained SDS-PAGE. The following applies: both partners purified.

The target in data set [2] is B4. Put plainly: crystal structure; DrRZ1-Ubc13~Ub complex, 3.4 Å, C222(1); sodium citrate, 100 mM Bis-Tris propane, 17-23% PEG 3350. Conditions: both partners purified.
Data set [3] deals with the molecule itself. Described as above.
Data set [4] has as its target T1, isopeptide-linked Ubc13-ubiquitin …. The description is as above. The following applies: both partners purified.
In data set [5] the target is T2, ubiquitin (wild-type), the ubiquitin moiety of the Ubc13~Ub conjugate (UniProt P0CG48 1-76, isopeptide-linked to Ubc13).
T2 construct: ubiquitin, wild-type, expressed untagged; Stands in the structures only as the ubiquitin moiety of the conjugate m4; In the activity assays labelled or mutated ubiquitins (Cy3-Met-Cys-ubiquitin K63R, D77 ubiquitin) were used; source: E. coli BL21 (DE3), untagged, purified (HiTrap SP, Superdex 75)
The data set is described as above. Conditions: both partners purified.

The target in data set [6] is T1, isopeptide-linked Ubc13-ubiquitin …. In words: SEC; DrRZ3 and Ubc13~Ub at 250 µM, alone or mixed, Superdex 200 10/300, 20 mM Tris-HCl pH 7.5, 150 mM NaCl; fractions on 16% SDS-PAGE. The following applies: both partners purified. For orientation: In gel filtration, larger molecules generally elute earlier.
Data set [7] concerns the molecule itself. Put plainly: crystal structure; DrRZ3-Ubc13~Ub complex, 3.9 Å, P4(2)2(1)2; 100-200 mM Na/K tartrate, 11-15% PEG 3350, 100 mM Bis-Tris propane pH 7.5.
The target in data set [8] is T2, ubiquitin (wild-type), the ubiquitin …. Described as above. The following applies: both partners purified.
For data set [9], the target named is B3. Described as above. Conditions: both partners purified.

The term stoichiometry N denotes a count of units in the complex or per binding partner.

As for B1, the binding result in data set [1] was “binds”.
Consider B2, for which the binding result in data set [2], in data set [4] and in data set [5] was “binds” each time. The “stoichiometry N” value in [3] worked out at 2.
For the molecule B3, the binding result in data set [6] and in data set [8] was “binds” each time. For the same molecule, the “stoichiometry N” value in data set [7] was 2.
Regarding B4, the binding result in data set [9] and in data set [5] was “binds” in each case.
